Results taken from patent EP4386000A1 (Nanjing Novoacine Bio-Technology Co., Ltd., dated 2024).
Changes are numbered by the printed parent chain.

T1: Mouse CD25-his (UniProtKB-P01590, Met1-Lys213) (mouse, UniProt P01590 22-213)
T1 construct: range 1-213; Range begins at Met1 (includes the signal peptide); not shown: his tag
T1 sequence (looked up): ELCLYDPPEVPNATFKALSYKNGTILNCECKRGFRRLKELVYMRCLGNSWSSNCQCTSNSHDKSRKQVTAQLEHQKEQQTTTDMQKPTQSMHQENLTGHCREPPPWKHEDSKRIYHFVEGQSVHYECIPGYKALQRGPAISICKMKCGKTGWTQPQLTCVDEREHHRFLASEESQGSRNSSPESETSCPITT

T2: human CD25 (NP_000408.1) (Met 1-Cys 213) C-terminally fused with 6-histidine tag (human, UniProt P01589 22-213)
T2 construct: range 1-213; Expressed in CHO-K1 cells; also called human CD25-his
T2 sequence: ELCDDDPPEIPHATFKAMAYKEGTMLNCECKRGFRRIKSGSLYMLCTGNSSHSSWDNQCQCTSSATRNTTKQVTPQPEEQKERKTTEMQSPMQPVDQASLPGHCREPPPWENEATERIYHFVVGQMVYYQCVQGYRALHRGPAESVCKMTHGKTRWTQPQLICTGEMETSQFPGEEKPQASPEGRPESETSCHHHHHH

T3: human CD25 on CHO-K1/hCD25 cells (human, UniProt P01589 22-272)
T3 construct: whole, on cells; The construct of the cell line is not described
T3 sequence (looked up): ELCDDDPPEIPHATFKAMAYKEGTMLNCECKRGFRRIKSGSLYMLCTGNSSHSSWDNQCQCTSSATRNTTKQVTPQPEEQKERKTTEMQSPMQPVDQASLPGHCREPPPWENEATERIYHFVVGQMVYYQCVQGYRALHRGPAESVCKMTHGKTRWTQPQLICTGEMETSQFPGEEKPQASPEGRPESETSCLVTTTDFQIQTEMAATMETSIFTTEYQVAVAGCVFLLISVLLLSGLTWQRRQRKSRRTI

T4: CD25 on CD4+CD25+ Treg cells isolated from human PBMCs (human, UniProt P01589 22-272)
T4 sequence (looked up): T3 sequence (looked up)

B1: chimeric antibody 2047-10H1L2 (antibody, human IgG1, kappa, V domains shown)
VH: QVQLQQSGPELVRPGVSVKISCKGSGYTFTDYAMHWVKQSHAKSLEWIGVISTYNGNTNYNQKFKGKATMTVDKSSSTAYMELARLTSEDSAIYYCARSYGNYPFDYWGQGTTLTVSS
VL: DIKMTQSPSSMYASLGERVTITCKASQDINSYLSWFQQKPGKSPKTLIYRANRLVDGVPSRFSGSGSGQDYSLTISSLEYEDMGIYYCLQYDEFPYTFGGGTKLEIKR
notes: Chimeric, human IgG1/kappa; also called 2047-10ix
B2: chimeric antibody 2047-3H8L2 (antibody, human IgG1, kappa, V domains shown)
VH: QVQLKQSGAELVKPGASVKMSCKTSGYTFTDYVISWVKQRTGQGLEWIGEIYPGSGSTYYNEKFKGKATLTADISSNTAYMQLSSLTSEDSAVYFCASINFDYWGHGTTLTVSS
VL: DIVMTQSPATLSVTPGDRVSLSCRASQSISDYLHWYQQKSHESPRLLIKYASQSISGIPSRFSGSGSGSDFTLSINSVEPEDVGVYYCQNGHSFPYTFGGGTKLEIKR
notes: Chimeric, human IgG1/kappa; also called 2047-3ix
B3: chimeric antibody 2046-111H2L1 (antibody, human IgG1, kappa, V domains shown)
VH: DVQLQESGPGLVKPSQSLSLTCTVTGHSITSDYAWNWIRQFPGNKLEWMGYISYSGSTIYNPSLKSRISITRDTSKNQFFLQLNSVTTEDTATYYCARWLLQNYYAMDYWGQGTSVTVSS
VL: DVVMTQTPLSLPVSLGDQASISCRSSQSLVHSNGNTYLHWYLRKPGQSPKLLIYKVSNRFSGVPDRFSGSGSGTDFTLKISRVEAEDLGVYFCSQSTHVPLTFGAGTKLELKR
notes: Chimeric, human IgG1/kappa
B4: chimeric antibody 2046-2H1L1 (antibody, human IgG1, kappa, V domains shown)
VH: B3 VH with H27Y, Q40H, S53T, I59V, Q78H, N103I
VL: B3 VL with R43Q
notes: Chimeric (murine V, human IgG1/kappa); also called 2046-2ix
B5: chimeric antibody 2046-18H1L1 (antibody, human IgG1, kappa, V domains shown)
VH: B3 VH with H27Y, S57I, N103I
VL: B3 VL with R24S, R43H
notes: Chimeric, human IgG1/kappa; also called 2046-18ix
B6: chimeric antibody 2046-24H2L1 (antibody, human IgG1, kappa, V domains shown)
VH: B3 VH with H27Y, S55G, S57T
VL: B3 VL with R43Q, L51V, S96N
notes: Chimeric, human IgG1/kappa; also called 2046-24ix
B7: chimeric antibody 2046-61H1L2 (antibody, human IgG1, kappa)
heavy: not shown
light: DVVMTQTPLSLPVSLGDQASISCRSSQSLVHSNGNTYLHWNLQKPGQSPKLLIYKVSNRFSGVPDRFSGSGSGTDFTLKISRVEAEDLGVYFCSQSTHVPLTFSAGTKLELKRTVAAPSVFIFPPSDEQLKSGTASVVCLLNNFYPREAKVQWKVDNALQSGNSQESVTEQDSKDSTYSLSSTLTLSKADYEKHKVYACEVTHQGLSSPVTKSFNRGEC
notes: Chimeric, human IgG1/kappa; also called 2046-61ix
B8: humanized antibody 2046-36H1L1 (antibody, human IgG1, kappa, V domains shown)
VH: EIQLVQSGSELKKPGASVKVSCKASGYTFTTAGMQWVRQAPGQGLEWMGWINTHSGVPKYAEDFKGRFVFSLDTSVSTAYLQISSLKAEDTAVYYCASDYAFGYWGQGTLVTVSS
VL: DVVMTQSPLSLPVTLGQPASISCKSSQSLLYSNGKTYLYWLQQRPGQSPRRLIYLVSKLDSGVPDRFSGSGSGTDFTLKISRVEAEDLGVYYCVQGTHFPYTFGQGTKLEIKR
B9: humanized antibody 2046-111H1L1-m2 (antibody, human IgG1, kappa, V domains shown)
VH: EVQLQESGPGLVKPSQTLSLTCTVSGHSITSDYAWNWIRQPPGKGLEWIGYISYSGSTIYNPSLKSRVTISRDTSKNQFSLKLSSVTAADTAVYYCARWLLQNYYAMDYWGQGTLVTVSS
VL: EIVLTQSPGTLSLSPGERATLSCRSSQSLVHSNGNTYLHWYQQKPGQAPRLLIYKVSNRFSGIPDRFSGSGSGTDFTLTISRLEPEDFAVYYCSQSTHVPLTFGQGTKLEIKR
B10: humanized antibody 2047-10H2L2 (antibody, human IgG1, kappa, V domains shown)
VH: EVQLVQSGAEVKKPGATVKISCKGSGYTFTDYAMHWVQQAPGKGLEWMGVISTYSGNTNYNQKFKGRVTITVDKSTSTAYMELSSLRSEDTAVYYCARSYGNYPFDYWGQGTLVTVSS
VL: DIQMTQSPSSLSASVGDRVTITCKASQDITSYLSWFQQKPGKAPKTLIYRANRLVDGVPSRFSGSGSGQDYTLTISSLQPEDMATYYCLQYDEFPYTFGQGTKLEIKR
B11: humanized antibody 2047-3H1L2 (antibody, human IgG1, kappa, V domains shown)
VH: EVQLVQSGAEVKKPGATVKISCKTSGYTFTDYVISWVQQAPGKGLEWMGEIYPGSGSTYYNEKFKGRVTITADISTNTAYMELSSLRSEDTAVYYCASINFDYWGQGTLVTVSS
VL: EIVMTQSPATLSLSPGERATLSCRASQSISDYLHWYQQKPGQAPRLLIKYASQSISGIPARFSGSGSGSDFTLTISSLQPEDVAVYYCQSGHSFPYTFGQGTKLEIKR

The binders below were run against T1, Mouse CD25-his (UniProtKB-P01590, …) (assay: ELISA, mouse CD25-his coated).

Binder | binding result
B1 | no binding (tested: starting at 100 ng/mL)
B2 | no binding (tested: starting at 100 ng/mL)
B3 | no binding (tested: starting at 100 ng/mL)
B4 | no binding (tested: starting at 100 ng/mL)
B5 | no binding (tested: starting at 100 ng/mL)
B6 | no binding (tested: starting at 100 ng/mL)
B7 | no binding (tested: starting at 100 ng/mL)

The binders below were run against T2, human CD25 (NP_000408.1) (Met 1-Cys …) (assay: SPR (BIAcore X100), human CD25-his captured by anti-histidine antibody, antibody as analyte, 1:1 model).

Binder | Kd | koff | kon
B8 | 0.994 nM | 0.00394 s⁻¹ | 3.96e+06 M⁻¹ s⁻¹
B9 | 6.35 nM | 0.00414 s⁻¹ | 652000 M⁻¹ s⁻¹
B10 | 4.46 nM | 0.00205 s⁻¹ | 461000 M⁻¹ s⁻¹
B11 | 1.43 nM | 0.000498 s⁻¹ | 348000 M⁻¹ s⁻¹

These binders were tested against T5, cyno CD25-his (NCBI-H6WS54, Met1-Arg213) (cyno) (assay: ELISA, cyno CD25-his coated).
T5 construct: range 1-213; Range begins at Met1 (includes the signal peptide)

Binder | EC50
B1 | 2.6 µg/mL
B2 | 0.189 µg/mL
B3 | 0.0447 µg/mL
B4 | 0.0594 µg/mL
B5 | 0.0483 µg/mL
B6 | 0.0424 µg/mL
B7 | 0.0601 µg/mL

Target: T2, human CD25 (NP_000408.1) (Met 1-Cys …)
Test: SPR (BIAcore X100), human CD25-his captured by anti-histidine antibody, antibody as analyte, 1:1 model
Remark: another data set of the same source

Binder | Kd | koff | kon
B1 | 15.5 nM | 0.0122 s⁻¹ | 788000 M⁻¹ s⁻¹
B2 | 0.308 nM | 7.26e-05 s⁻¹ | 236000 M⁻¹ s⁻¹
B3 | 0.819 nM | 0.000431 s⁻¹ | 526000 M⁻¹ s⁻¹
B4 | 4.27 nM | 0.00318 s⁻¹ | 745000 M⁻¹ s⁻¹
B5 | 0.703 nM | 0.000326 s⁻¹ | 463000 M⁻¹ s⁻¹
B6 | 7.63 nM | 0.00349 s⁻¹ | 458000 M⁻¹ s⁻¹
B7 | 9.44 nM | 0.0121 s⁻¹ | 1.28e+06 M⁻¹ s⁻¹

These binders were tested against T3, human CD25 on CHO-K1/hCD25 cells (assay: flow cytometry on CHO-K1/hCD25 cells).

Binder | EC50 | Relative activity (%) compared with 686
B1 | 0.00246 µg/mL | 120%
B2 | 0.00143 µg/mL | 205%
B3 | 0.00109 µg/mL | 132%
B4 | 0.00192 µg/mL | 63.8%
B5 | 0.00171 µg/mL | 110%
B6 | 0.00143 µg/mL | 131%
B7 | 0.00114 µg/mL | 107%

The binders below were run against T2, human CD25 (NP_000408.1) (Met 1-Cys …) (assay: ELISA, human CD25-his coated).

Binder | EC50 | Relative activity (%) compared with 686
B1 | 0.186 µg/mL | 56%
B2 | 0.111 µg/mL | 93.6%
B3 | 0.0989 µg/mL | 105%
B4 | 0.105 µg/mL | 99%
B5 | 0.102 µg/mL | 102%
B6 | 0.106 µg/mL | 98.2%
B7 | 0.144 µg/mL | 72.2%

Each binder was assayed against T4, CD25 on CD4+CD25+ Treg cells isolated … (assay: cell-based or functional assay).

Binder | EC50, killing Tregs in vitro (ADCC reporter, jurkat/CD16a/NFAT-luc) | Relative activity (%) compared with 686, killing Tregs in vitro
B1 | 41.4 µg/mL | 314%
B2 | 857 µg/mL | 15.2%
B3 | 89.8 µg/mL | 145%
B4 | 22.2 µg/mL | 584%
B5 | 31.7 µg/mL | 410%
B6 | 26.5 µg/mL | 491%
B7 | 34.1 µg/mL | 380%
